Laboratory results: US20100129347A1, “HERPES VIRUS INFECTION INHIBITOR, METHOD FOR INHIBITING INFECTION WITH HERPES VIRUS, AND USE THEREOF” (Osaka University, priority 2007, published 2010)

System: HSV-1
Test: HSV-1-GFP infection of CHO-K1 cells transfected with human PILR, ratio of infected cells by flow cytometry
Format: cell-based
Details: various concentrations, FIG. 3
Description: CHO-K1 cells were transiently transfected in a 10% FCS-containing F-12 culture medium using Lipofectamine 2000 (produced by Invitrogen) or GeneJuice (produced by Novagen). 1 day after the transfection, the 10% FCS-containing F-12 culture medium was replaced with a 1% FCS-containing F-12 culture medium. 2 days after the transfection, the transfectant was mixed with HSV-GFP and centrifuged at 32° C. at 2500 rpm for 2 hours. Thus, the transfectant was infected with HSV-GFP.
Human PILR was transiently transfected to the CHO-K1 cells by using pMx-IRES-DsRed expression vector, and the CHO-K1 cells were caused to be infected with HSV-1 by using HSV-1-GFP in the presence of anti-human PILR mAb with various concentrations or control mAb. The ratio of HSV-1-infected cells was analyzed by flow cytometry.
The CHO-K1 cells to which PILR had been transfected were caused to be infected with HSV-1 in the presence of PILR-Ig with various concentrations or Ig-fused protein without PILR that was a control. The ratio of the infected cells was analyzed by flow cytometry. Since PILR-Ig directly binds to gB of HSV-1, it is considered that there is a possibility that PILR-Ig blocks interaction between HSV-1 and PILR on the surface of a cell.

B1: control Ig-fused protein: Ig-fused protein without PILR used as control; purified human CD200-Ig fusion protein (protein)
chain: QVQVVTQDEREQLYTPASLKCSLQNAQEALIVTWQKKKAVSPENMVTFSENHGVVIQPAYKDKINITQLGLQNSTITFWNITLEDEGCYMCLFNTFGFGKISGTACLTVYVQPIVSLHYKFSEDHLNITCSATARPAPMVFWKVPRSGIENSTVTLSHPNGTTSVTSILHIKDPKNQVGKEVICQVLHLGTVTDFKQTVNKG
modifications: left off: a dimerising Fc or GST
  blocking of HSV-1 infection of PILR-transfected CHO-K1 cells: not blocked
